Target: MERS-CoV S2 stem helix peptide (MERS-CoV)

Chain of S2P6 (antibody) (VH): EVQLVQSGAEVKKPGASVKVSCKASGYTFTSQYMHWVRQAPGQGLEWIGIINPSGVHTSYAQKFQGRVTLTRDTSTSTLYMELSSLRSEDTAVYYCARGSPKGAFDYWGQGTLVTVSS
Chain of S2P6 (antibody) (VL): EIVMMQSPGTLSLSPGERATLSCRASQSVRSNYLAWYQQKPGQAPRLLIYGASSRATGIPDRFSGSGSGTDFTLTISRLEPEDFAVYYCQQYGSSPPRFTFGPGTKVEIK

## S2P6 (antibody)
  IC50 of neutralisation of MERS-CoV pseudovirus (HeLa-hDPP4 cells): 8.37 µg/mL

From publication PMC13480645
